From publication PMC11601148, “Effects of proline substitution/inclusion on the nanostructure of a self-assembling β-sheet-forming peptide†” (RSC Advances, 2024) come the findings set out here.

Series [1] deals with the molecule itself. In words: ITC; NaOH (0.0025, 0.0125, 0.025 M) titrated into peptide at 0.1, 0.5 and 1 mg/mL in water, 25 °C; the energy change on deprotonation is read as a sign of self-assembly, no binding constant is fitted. For orientation: ITC needs no label: the signal is the heat of the interaction.
Series [2] concerns the molecule itself. The series can be described thus: SAXS + WAXS; peptide samples at 5 and 10 mg/mL in quartz capillaries, beamline I22 at Diamond Light Source, water as background.

B1: FEFKPEFKF (peptide)
peptide: FEFKPEFKF
notes: FP with one more phenylalanine at the C-terminal end; also called KEP; source: synthetic peptide, bought: Biomatik LLC (HCl salt, >90% purity)
With B1, in series [1], the binding result was “binds”.

B2: FEFKFEFK (peptide)
peptide: FEFKFEFK
notes: also called F8; source: synthetic peptide, bought: Biomatik LLC (HCl salt, >90% purity)
In the case of B2, the binding result in series [1] is on record as “binds”.

B3: FEFEPKFKF (peptide)
peptide: FEFEPKFKF
notes: KPE with the polar residues shuffled: glutamic acids on one side of the proline, lysines on the other; source: synthetic peptide, bought: Biomatik LLC (HCl salt, >90% purity)
In the case of B3, in series [2], the binding result is listed as “binds”.
